Columns and labels:
[1] = target: Sti1 G193C–G309C N39A, labelled with ATTO 532 and ATTO 647 (S. cerevisiae) (UniProt P15705)
[2] = target: Sti1 G193C–G309C N435A, labelled with ATTO 532 and ATTO 647 (S. cerevisiae) (UniProt P15705)
[3] = target: Sti1 G193C–G309C, labelled with ATTO 532 and ATTO 647 (S. cerevisiae) (UniProt P15705)
Sequence of Sti1 G193C–G309C, labelled with ATTO 532 and ATTO 647 (S. cerevisiae) (P15705 whole entry G193C/G309C): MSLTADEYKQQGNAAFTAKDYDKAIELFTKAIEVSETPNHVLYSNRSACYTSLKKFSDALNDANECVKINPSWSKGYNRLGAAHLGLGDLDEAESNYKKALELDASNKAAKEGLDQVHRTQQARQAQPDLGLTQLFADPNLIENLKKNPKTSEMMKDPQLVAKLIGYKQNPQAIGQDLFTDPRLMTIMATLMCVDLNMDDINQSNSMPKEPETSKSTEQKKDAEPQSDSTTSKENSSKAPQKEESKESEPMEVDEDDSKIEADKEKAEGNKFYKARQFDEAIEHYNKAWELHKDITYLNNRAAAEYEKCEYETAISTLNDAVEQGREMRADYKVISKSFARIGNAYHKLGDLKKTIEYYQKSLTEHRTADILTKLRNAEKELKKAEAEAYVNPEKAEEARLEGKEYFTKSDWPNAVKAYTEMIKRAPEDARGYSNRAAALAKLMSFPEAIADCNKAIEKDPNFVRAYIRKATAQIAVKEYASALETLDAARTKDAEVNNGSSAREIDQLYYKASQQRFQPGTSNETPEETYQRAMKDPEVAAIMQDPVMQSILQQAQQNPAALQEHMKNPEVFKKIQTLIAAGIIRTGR

Sequence of yHsp70 (Ssa1), P10591 1-642 (natural protein; ATTO 532 and ATTO 647 on the two cysteines (labelled stochastically)) (P10591 whole entry): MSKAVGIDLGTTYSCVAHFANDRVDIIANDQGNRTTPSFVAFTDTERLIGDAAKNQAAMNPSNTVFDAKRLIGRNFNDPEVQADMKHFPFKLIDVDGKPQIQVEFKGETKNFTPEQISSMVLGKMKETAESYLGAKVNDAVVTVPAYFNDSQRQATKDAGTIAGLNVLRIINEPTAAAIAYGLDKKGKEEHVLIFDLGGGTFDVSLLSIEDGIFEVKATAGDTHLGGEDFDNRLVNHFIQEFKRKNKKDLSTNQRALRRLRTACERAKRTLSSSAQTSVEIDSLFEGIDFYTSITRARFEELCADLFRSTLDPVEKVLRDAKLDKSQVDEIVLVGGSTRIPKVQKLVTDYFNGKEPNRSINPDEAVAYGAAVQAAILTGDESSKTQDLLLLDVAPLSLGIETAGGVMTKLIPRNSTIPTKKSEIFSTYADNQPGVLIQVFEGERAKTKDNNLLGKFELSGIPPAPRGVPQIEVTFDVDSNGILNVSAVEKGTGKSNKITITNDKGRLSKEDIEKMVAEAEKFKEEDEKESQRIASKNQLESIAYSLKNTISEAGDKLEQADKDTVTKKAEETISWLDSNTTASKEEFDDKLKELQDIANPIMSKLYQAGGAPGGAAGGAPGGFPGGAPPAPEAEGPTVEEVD
Sequence of Sti1 G193C–G309C N435A, labelled with ATTO 532 and ATTO 647 (S. cerevisiae) (P15705 whole entry G193C/G309C/N435A): as the sequence (P15705 whole entry G193C/G309C) above, with N435A counted along it
Sequence of Sti1 G193C–G309C N39A, labelled with ATTO 532 and ATTO 647 (S. cerevisiae) (P15705 whole entry N39A/G193C/G309C): as the sequence (P15705 whole entry G193C/G309C) above, with N39A counted along it

Substance | dynamic traces (%) in surface-based spFRET (TIRF) of Sti1 encapsulated in vesicles with 10 μM Hsp90; 13 without Hsp [1] | dynamic traces (%) in surface-based spFRET (TIRF) of Sti1 encapsulated in vesicles with 10 μM Hsp90; 17 without Hsp [2] | dynamic traces (%) in surface-based spFRET (TIRF) of Sti1 encapsulated in vesicles with 10 μM Hsp90; 17 without Hsp [3] | dynamic traces (%) in surface-based spFRET (TIRF) of Sti1 encapsulated in vesicles with 25 μM Hsp70; 13 without Hsp [1] | dynamic traces (%) in surface-based spFRET (TIRF) of Sti1 encapsulated in vesicles with 25 μM Hsp70; 17 without Hsp [2] | dynamic traces (%) in surface-based spFRET (TIRF) of Sti1 encapsulated in vesicles with 25 μM Hsp70; 17 without Hsp [3]
yHsp90 (Hsp82), P02829 1-709 (natural protein; ATTO 532 and ATTO 647 on the two cysteines (labelled stochastically)) | 27% | 26% | 31% |  |  | 
yHsp70 (Ssa1), P10591 1-642 (natural protein; ATTO 532 and ATTO 647 on the two cysteines (labelled stochastically)) |  |  |  | 27% | 15% | 28%

Source: publication PMC4403447
